Several values for one entry are separate records, joined by “and”; a condition that tells them apart may be missing. Equal entries are not always repeated. No end group written: not given here.
Tests used:
Details in all cases: both partners purified
kindlin-2 (KIND2) [1] = target: T1, kindlin-2 (KIND2) (UniProt Q8CIB5 1-680); assay: MST; apparent; KIND2 titrated to 488–β3-CT in the presence of 250-450 µM TLN2-F3; MST buffer
T1 construct: kindlin-2 (KIND2), recombinant; with the F1 loop and the PH domain (unlike ΔKIND2); source: E. coli Rosetta, purified (IMAC, SEC); not shown: His10-SUMO, N-terminal, cleaved
T1 sequence (looked up): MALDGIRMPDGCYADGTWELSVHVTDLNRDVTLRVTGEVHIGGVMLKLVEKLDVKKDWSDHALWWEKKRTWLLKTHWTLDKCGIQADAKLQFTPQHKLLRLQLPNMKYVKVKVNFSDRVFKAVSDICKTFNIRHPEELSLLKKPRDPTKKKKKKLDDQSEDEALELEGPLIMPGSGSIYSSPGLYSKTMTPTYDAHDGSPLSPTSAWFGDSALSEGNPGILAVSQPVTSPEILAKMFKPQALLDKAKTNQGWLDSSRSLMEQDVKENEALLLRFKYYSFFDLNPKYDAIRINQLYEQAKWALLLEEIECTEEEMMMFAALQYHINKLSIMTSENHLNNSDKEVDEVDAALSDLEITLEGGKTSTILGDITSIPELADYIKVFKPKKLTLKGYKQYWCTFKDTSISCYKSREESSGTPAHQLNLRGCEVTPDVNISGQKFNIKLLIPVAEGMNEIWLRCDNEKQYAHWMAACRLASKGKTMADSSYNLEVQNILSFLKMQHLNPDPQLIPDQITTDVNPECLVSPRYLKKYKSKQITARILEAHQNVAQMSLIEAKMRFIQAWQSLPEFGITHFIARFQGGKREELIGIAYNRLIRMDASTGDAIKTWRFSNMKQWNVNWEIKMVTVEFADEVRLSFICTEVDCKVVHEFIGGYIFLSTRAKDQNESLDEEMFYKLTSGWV

[2] = target: T2, talin-2 head domain (THD2) (UniProt Q71LX4 1-408); assay: MST; apparent; THD1 titrated to 488–β1-CT or THD2 to 488–β3-CT in the presence of 30 µM KIND2; MST buffer
T2 construct: talin-2 (TLN2) head domain (THD), residues 1-408; source: E. coli (DE3) Rosetta 2, purified (IMAC, SEC); not shown: His10-SUMO, N-terminal, cleaved
T2 sequence (Q71LX4 1-408): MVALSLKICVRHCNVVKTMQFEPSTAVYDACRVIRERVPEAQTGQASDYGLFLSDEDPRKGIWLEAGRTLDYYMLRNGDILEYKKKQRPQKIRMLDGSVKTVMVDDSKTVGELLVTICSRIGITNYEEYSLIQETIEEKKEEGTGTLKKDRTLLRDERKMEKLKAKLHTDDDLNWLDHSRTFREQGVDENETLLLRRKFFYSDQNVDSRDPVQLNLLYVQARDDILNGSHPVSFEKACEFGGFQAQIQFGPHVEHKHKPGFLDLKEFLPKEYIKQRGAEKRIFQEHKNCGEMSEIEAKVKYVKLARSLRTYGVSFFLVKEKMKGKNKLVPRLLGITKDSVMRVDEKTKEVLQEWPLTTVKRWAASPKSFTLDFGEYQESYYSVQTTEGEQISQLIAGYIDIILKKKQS

[3] = target: T3, talin-1 head domain (THD1) (UniProt P26039 1-405); assay: MST; apparent; THD1 or THD1 mutants titrated to 488–β3-CT in the presence of 30-40 µM KIND2; MST buffer
T3 construct: talin-1 (TLN1) head domain (THD), residues 1-405; murine TLN1 cDNA is named only for the cell lines; also called WT; source: E. coli (DE3) Rosetta 2, purified (IMAC, SEC); not shown: His10-SUMO, N-terminal, cleaved
T3 sequence (P26039 1-405): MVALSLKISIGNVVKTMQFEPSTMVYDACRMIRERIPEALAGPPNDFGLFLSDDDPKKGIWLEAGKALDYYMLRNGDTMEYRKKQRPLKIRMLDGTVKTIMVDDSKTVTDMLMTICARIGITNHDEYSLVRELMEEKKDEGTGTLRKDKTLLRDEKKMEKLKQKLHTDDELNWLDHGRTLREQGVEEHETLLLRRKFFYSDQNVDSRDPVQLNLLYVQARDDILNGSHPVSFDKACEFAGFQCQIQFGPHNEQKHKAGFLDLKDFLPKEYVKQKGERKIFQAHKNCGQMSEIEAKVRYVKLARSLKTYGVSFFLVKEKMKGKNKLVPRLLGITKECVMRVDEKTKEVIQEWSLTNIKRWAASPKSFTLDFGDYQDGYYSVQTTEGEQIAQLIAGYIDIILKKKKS

THD1 K404A = target: T4, THD1 K404A (UniProt P26039 1-405, K404A); assay: as above
T4 construct: talin-1 (TLN1) head domain, residues 1-405, K404A; source: E. coli (DE3) Rosetta 2, purified (IMAC, SEC); not shown: His10-SUMO, N-terminal, cleaved
T4 sequence (P26039 1-405 K404A): as the sequence (P26039 1-405) above, with K404A counted along it

THD1 K401A = target: T5, THD1 K401A (UniProt P26039 1-405, K401A); assay: as above
T5 construct: talin-1 (TLN1) head domain, residues 1-405, K401A; source: E. coli (DE3) Rosetta 2, purified (IMAC, SEC); not shown: His10-SUMO, N-terminal, cleaved
T5 sequence (P26039 1-405 K401A): as the sequence (P26039 1-405) above, with K401A counted along it

THD1 Δ401-405 = target: T6, THD1 Δ401-405 (UniProt P26039 1-405, Δ401-405); assay: as above
T6 construct: source: E. coli (DE3) Rosetta 2, purified (IMAC, SEC); not shown: His10-SUMO, N-terminal, cleaved
T6 sequence (P26039 1-400, stated change not applied): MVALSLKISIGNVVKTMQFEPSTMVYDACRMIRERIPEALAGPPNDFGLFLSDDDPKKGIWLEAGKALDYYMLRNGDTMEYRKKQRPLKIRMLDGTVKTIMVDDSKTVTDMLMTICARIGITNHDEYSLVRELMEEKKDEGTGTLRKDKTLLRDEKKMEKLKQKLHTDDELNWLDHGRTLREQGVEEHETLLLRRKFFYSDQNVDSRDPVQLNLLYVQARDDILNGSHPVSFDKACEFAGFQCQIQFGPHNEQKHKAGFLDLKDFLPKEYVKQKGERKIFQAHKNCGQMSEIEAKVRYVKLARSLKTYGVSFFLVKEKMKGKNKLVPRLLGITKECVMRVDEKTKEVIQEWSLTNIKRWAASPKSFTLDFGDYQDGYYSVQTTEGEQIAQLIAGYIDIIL

THD1 I396A = target: T7, THD1 I396A (UniProt P26039 1-405, I396A); assay: as above
T7 construct: talin-1 (TLN1) head domain, residues 1-405, I396A; source: E. coli (DE3) Rosetta 2, purified (IMAC, SEC); not shown: His10-SUMO, N-terminal, cleaved
T7 sequence (P26039 1-405 I396A): as the sequence (P26039 1-405) above, with I396A counted along it

THD1 I398A = target: T8, THD1 I398A (UniProt P26039 1-405, I398A); assay: as above
T8 construct: talin-1 (TLN1) head domain, residues 1-405, I398A; source: E. coli (DE3) Rosetta 2, purified (IMAC, SEC); not shown: His10-SUMO, N-terminal, cleaved
T8 sequence (P26039 1-405 I398A): as the sequence (P26039 1-405) above, with I398A counted along it

[4] = target: T2, talin-2 head domain (THD2); assay: MST; unlabelled protein titrated to 50-200 nM ATTO 488-labelled β-CT peptide, no third protein; 20 mM Tris pH 7.5, 200 mM NaCl, 1 mM TCEP, 0.05% Tween-20; Kd of individual titrations (in S0002 mean and sd, n = 2)
kindlin-2 (KIND2) [5] = target: T1, kindlin-2 (KIND2); assay: MST; apparent; KIND2 titrated to 488–β3-CT in the presence of 250–450 µM THD1; MST buffer
[6] = target: T3, talin-1 head domain (THD1); assay: MST; apparent; THD1 titrated to 488–β3-CT in the presence of 30-40 µM KIND2-Y13A; MST buffer
kindlin-2 (KIND2) [7] = target: T1, kindlin-2 (KIND2); assay: MST; apparent; KIND2 titrated to 488–β3-CT in the presence of 250-450 µM TLN1-F3; MST buffer

Kd (kindlin-2 (KIND2) [1]): 55.8 µM and 30.2 µM and 54.2 µM
Kd [2]: 39.1 µM and 36.2 µM and 54 µM
Kd [3]: 95 µM
Kd (THD1 K404A): 116 µM
Kd (THD1 K401A): 148 µM
Kd (THD1 Δ401-405): 560 µM
Kd (THD1 I396A): 551 µM
Kd (THD1 I398A): 155 µM
Kd [4]: 31.7 µM and 32.1 µM and 49.1 µM
Kd (kindlin-2 (KIND2) [5]): 30.7 µM and 85.6 µM and 31.9 µM and 66 µM
Kd [6]: 283 µM and 241 µM and 188 µM and 159 µM
Kd (kindlin-2 (KIND2) [7]): 119 µM and 121 µM
B1: ATTO 488-labeled integrin β3 cytoplasmic tail (488–β3-CT) (peptide, UniProt O54890 741-787, looked up)
peptide: {ATTO 488}-KLLITIHDRKEFAKFEEERARAKWDTANNPLYKEATSTFTNITYRGT
notes: integrin β3 cytoplasmic tail (β3-CT); source: synthetic peptide (MPIB Core Facility)

— publication PMC10716038, “Talin and kindlin use integrin tail allostery and direct binding to activate integrins” (Nature Structural & Molecular Biology, 2023)
